Test results: US20260234584A1, “R-LOOP SENSOR” (FUNDAÇÃO GIMM - GULBENKIAN INSTITUTE FOR MOLECULAR MEDICINE, priority 2023, published 2026)

Assays:
Type in all cases: cell-based, human
[1] = tested on: R-loops foci in U2OS cells; assay: Quantification of RHINO R-loops foci after transcription inhibition with triptolide
Source text: (A) Illustration of RHINO structure (left) and DNA:RNA hybrid labelling in an R-loop behind a transcribing RNA Pol II complex (right). The positions of the amino acids substituted in the RHINO mutants are indicated by red […]) and blue ([…]) asterisks. (B) Confocal microscopy images of RHINO expressed in U2OS cells together with mCherry-H2B to mark the cell nucleus and a corresponding max. intensity projection. RHINO spots throughout the nucleoplasm (highlighted in inset image) and intense labelled foci in the nucleoli are shown. (C) Comparison of RHINO and S9.6 antibody labelling of DNA:RNA hybrids. The nucleolar signals of S9.6 and RHINO are mutually exclusive (inset). (D) Expression of two RHINO mutant constructs and mCherry-histone-H2B. […] (E) Max. intensity projections of live U2OS cells expressing RHINO alone (left) or co-expressing mScarlet-i tagged human RNase H1 (right) and quantification of RHINO foci for each condition. (F) Quantification of RHINO foci upon use of a rapid inducible RNase H1. […] Quantification of RHINO foci before and 1 h after TA addition. (G) Max. intensity projections of random live U2OS cells expressing RHINO before and after 1 h incubation with Triptolide and quantification of RHINO foci number. (H) Max. intensity projections of the same live U2OS cells expressing RHINO before and after 1 h incubation with Triptolide and quantification of RHINO foci number. […]

[2] = tested on: telomeric R-loops in U2OS cells; assay: FRAP at labelled telomeres
Source text: (A) Labelling of nucleolar R-loops in live U2OS cells. Nucleoli are labelled by a red fluorescent nucleolar marker. Bright RHINO foci in several nucleoli are indicated with arrowheads. (B) Dissecting R-loop localization in nucleolar substructures. U2OS cells expressing RHINO were fixed and stained with an anti-UBF antibody marking the fibrillar centres/dense fibrillar component interface. Display of two super-resolution microscopy image sets acquired with structured illumination (top) and Airyscan 2 technology (bottom). (C) Measurements of nucleolar R-loops dynamics by FRAP on RHINO foci inside nucleoli. The fluorescence within the red circle was bleached (false colour images) and the recovery monitored over time. […] (D) Labelling of Tel-R-loops in live U2OS cells co-expressing RHINO and iRFP-TRF2. Several telomeres show directly adjacent or overlapping labelling of R-loops (magnified details 1-5). […] (E) Measurements of Tel-R-loops dynamics by FRAP of wild-type RHINO compared to both mutants and diffuse GFP at labelled telomeres. False colour images show the wild-type RHINO labelled cell with the bleach region (red circle). The curves display the mean intensity (+/−SD) of RHINO foci, RHINO mutants and diffuse GFP as control. […]

[3] = tested on: nucleolar R-loops in U2OS cells; assay: FRAP on individual nucleolar RHINO foci; conditions: in 200 seconds
Source text: (A) Labelling of nucleolar R-loops in live U2OS cells. Nucleoli are labelled by a red fluorescent nucleolar marker. Bright RHINO foci in several nucleoli are indicated with arrowheads. (B) Dissecting R-loop localization in nucleolar substructures. U2OS cells expressing RHINO were fixed and stained with an anti-UBF antibody marking the fibrillar centres/dense fibrillar component interface. Display of two super-resolution microscopy image sets acquired with structured illumination (top) and Airyscan 2 technology (bottom). (C) Measurements of nucleolar R-loops dynamics by FRAP on RHINO foci inside nucleoli. The fluorescence within the red circle was bleached (false colour images) and the recovery monitored over time. […] (D) Labelling of Tel-R-loops in live U2OS cells co-expressing RHINO and iRFP-TRF2. […]
Owing to the lack of robust tools to image and collect quantitative parameters of R-loops in live cells, a clear understanding of R-loops dynamics and of their specific kinetics at distinct genomic loci is scarce. […] To investigate the dynamics of nucleolar R-loops, fluorescence recovery was performed after photobleaching (FRAP) experiments in individual nucleolar RHINO foci (FIG. 2C). We observed a rapid turnover of fluorescent RHINO molecules, which restored 90% of the initial fluorescence intensity in 200 seconds (FIG. 2C).

Row | Molecule | number of R-loops foci detected by RHINO ([1]; one-hour treatment, bulk cell population of U2OS cells) | reduction in the number of R-loops foci ([1]; same RHINO-expressing cells imaged before and one hour after treatment) | fluorescence recovery relative to initial intensity ([2]; major fraction of telomeric R-loops, within 10-15 seconds after photobleaching) | fluorescence recovery, second population of telomeric R-loops ([2]; other (minor) population of telomeric R-loops) | restored initial fluorescence intensity after photobleaching [3]
1 | CC(C)[C@]12O[C@H]1[C@@H]1O[C@]13[C@]1(O[C@H]1C[C@H]1C4=C(CC[C@@]13C)C(=O)OC4)[C@@H]2O [triptolide] | significantly decrease | 46% | – | – | –
2 | RHINO: genetically encoded RNA:DNA hybrid-binding sensor; fusion protein comprising 3 HBDs and a reporter domain (e.g., a fluorescent protein) (protein) MFYAVRRGRKTGVFLTWNECRAQVDRFPAARFKKFATEDEAWAFVRKSASVDGTAGPGSAVFYAVRRGRKTGVFLTWNECRAQVDRFPAARFKKFATEDEAWAFVRKSASVDGTAGPGSAVFYAVRRGRKTGVFLTWNECRAQVDRFPAARFKKFATEDEAWAFVRKSASVDGTAGPGSTGVTGKLDPPVATMVSKGEEDNMASLPATHELHIFGSINGVDFDMVGQGTGNPNDGYEELNLKSTKGDLQFSPWILVPHIGYGFHQYLPYPDGMSPFQAAMVDGSGYQVHRTMQFEDGASLTVNYRYTYEGSHIKGEAQVKGTGFPADGPVMTNSLTAADWCRSKKTYPNDKTIISTFKWSYTTGNGKRYRSTARTTYTFAKPMAANYLKNQPMYVFRKTELKHSKTELNFKEWQKAFTDVMGMDELYK | – | – | 88% | little to no recovery | 90%
